We go through 14 molecules from patent US20220073935A1.

The chains are these.
B1: LB-Rb (379-928) A488V (protein, part only; not given: Large BiT luciferase tag, human, UniProt P06400 379-928, looked up, part only)
chain, part: MNTIQQLMMILNSASDQPSENLISYFNNCTVNPKESILKRVKDIGYIFKEKFAKAVGQGCVEIGSQRYKLGVRLYYRVMESMLKSEEERLSIQNFSKLLNDNIFHMSLLVCALEVVMATYSRSTSQNLDSGTDLSFPWILNVLNLKAFDFYKVIESFIKAEGNLTREMIKHLERCEHRIMESLAWLSDSPLFDLIKQSKDREGPTDHLESACPLNLPLQNNHTAADMYLSPVRSPKKKGSTTRVNSTANAETQATSAFQTQKPLKSTSLSLFYKKVYRLAYLRLNTLCERLLSEHPELEHIIWTLFQHTLQNEYELMRDRHLDQIMMCSMYGICKVKNIDLKFKIIVTAYKDLPHAVQETFKRVLIKEEEYDSIIVFYNSVFMQRLKTNILQYASTRPPTLSPIPHIPRSPYKFPSSPLRIPGGNIYISPLKSPYKISEGLPTPTKMTPRSRILVSIGESFGTSEKFQKINQMVCNSDRVLKRSAEGSNPPKPLKKLRFDIEGSDEADGSKHLPGESKFQQKLAEMTSTRTRMQKQKMNDSMDTSNKEEK
B2: LB-Rb (379-928) R621S (protein, part only; not given: Large BiT luciferase tag, human, UniProt P06400 379-928, looked up, part only)
chain, part: B1 chain, part with V110A, R243S
B3: LB-Rb (379-928) C706F (protein, part only; not given: Large BiT luciferase tag, human, UniProt P06400 379-928, looked up, part only)
chain, part: B1 chain, part with V110A, C328F
B4: LB-Rb (379-928) V654M (protein, part only; not given: Large BiT luciferase tag, human, UniProt P06400 379-928, looked up, part only)
chain, part: B1 chain, part with V110A, V276M
B5: LB-Rb (379-928) I724N (protein, part only; not given: Large BiT luciferase tag, human, UniProt P06400 379-928, looked up, part only)
chain, part: B1 chain, part with V110A, I346N
B6: LB-Rb (379-928) R661W (protein, part only; not given: Large BiT luciferase tag, human, UniProt P06400 379-928, looked up, part only)
chain, part: B1 chain, part with V110A, R283W
B7: LB-Rb (379-928) R798Q (protein, part only; not given: Large BiT luciferase tag, human, UniProt P06400 379-928, looked up, part only)
chain, part: B1 chain, part with V110A, R420Q
B8: LB-Rb (379-928) L665R (protein, part only; not given: Large BiT luciferase tag, human, UniProt P06400 379-928, looked up, part only)
chain, part: B1 chain, part with V110A, L287R
B9: LB-Rb (379-928) R698W (protein, part only; not given: Large BiT luciferase tag, human, UniProt P06400 379-928, looked up, part only)
chain, part: B1 chain, part with V110A, R320W
B10: LB-Rb (379-928) E440K (protein, part only; not given: Large BiT luciferase tag, human, UniProt P06400 379-928, looked up, part only)
chain, part: B1 chain, part with E62K, V110A
B11: LB-Rb (379-928) R656W (protein, part only; not given: Large BiT luciferase tag, human, UniProt P06400 379-928, looked up, part only)
chain, part: B1 chain, part with V110A, R278W

Numbering of substitutions follows the chain as printed. Numbers in names are those of the source.

The target of the assay is E2F1-SB, DP1 (E2F1 fragment with C-terminal Small BiT, co-expressed with Dp-1) (human) (UniProt Q01094). Kind of assay: NanoBiT split-luciferase complementation, cells stably expressing E2F1-SB and Dp-1; relative to WT LB-Rb.
E2F1-SB, DP1 (E2F1 fragment with C-terminal Small BiT, co-expressed with Dp-1) (human), sequence (Q01094 whole entry, chain 1 of 2, the tested form may be a part): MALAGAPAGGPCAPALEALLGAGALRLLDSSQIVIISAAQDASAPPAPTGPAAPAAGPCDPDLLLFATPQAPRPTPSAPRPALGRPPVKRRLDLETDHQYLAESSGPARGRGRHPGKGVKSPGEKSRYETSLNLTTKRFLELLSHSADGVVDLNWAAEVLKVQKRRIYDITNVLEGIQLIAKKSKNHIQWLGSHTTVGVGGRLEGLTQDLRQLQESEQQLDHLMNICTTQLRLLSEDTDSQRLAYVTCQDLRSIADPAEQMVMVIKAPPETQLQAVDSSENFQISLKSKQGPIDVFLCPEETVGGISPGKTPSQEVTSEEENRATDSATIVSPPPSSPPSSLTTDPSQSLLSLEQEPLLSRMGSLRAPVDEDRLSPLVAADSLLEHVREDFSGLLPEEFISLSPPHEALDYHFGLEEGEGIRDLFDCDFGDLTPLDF
E2F1-SB, DP1 (E2F1 fragment with C-terminal Small BiT, co-expressed with Dp-1) (human), sequence (Q14186 whole entry, chain 2 of 2, further chain, the tested form may be a part): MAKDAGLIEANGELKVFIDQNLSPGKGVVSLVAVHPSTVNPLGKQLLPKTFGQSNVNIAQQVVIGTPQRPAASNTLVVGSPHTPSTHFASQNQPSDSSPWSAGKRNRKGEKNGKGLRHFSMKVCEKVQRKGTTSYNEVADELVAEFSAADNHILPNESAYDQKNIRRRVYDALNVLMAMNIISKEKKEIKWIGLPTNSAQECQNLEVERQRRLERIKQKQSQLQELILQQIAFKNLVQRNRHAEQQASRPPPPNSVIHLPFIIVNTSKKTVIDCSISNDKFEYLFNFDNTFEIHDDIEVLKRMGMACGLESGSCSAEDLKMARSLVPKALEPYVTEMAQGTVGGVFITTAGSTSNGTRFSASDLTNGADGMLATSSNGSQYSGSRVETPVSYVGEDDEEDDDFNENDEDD
“LB-Rb (379-928) R661del1, out-of-frame deletion mutant (from UniProt P06400 379-660)”: the % (/wt) luciferase activity was 0.8 % (/wt).

“LB-Rb (379-928) R798W (from UniProt P06400 379-928)”: the % (/wt) luciferase activity is 120 % (/wt).

Regarding “LB-Rb (379-928) I703del35, in-frame deletion mutant (from UniProt P06400 379-702; P06400 738-928)”, the % (/wt) luciferase activity is 8.6 % (/wt).

On to B1, for which the % (/wt) luciferase activity is 51 % (/wt).

Consider B2, for which the % (/wt) luciferase activity is 124 % (/wt).

On to B3, for which the % (/wt) luciferase activity is 5.5 % (/wt).

Regarding B4, the % (/wt) luciferase activity was 132 % (/wt).

As for B5, the % (/wt) luciferase activity was 7.4 % (/wt).

B6: the % (/wt) luciferase activity was 5.2 % (/wt).

B7: the % (/wt) luciferase activity is 92 % (/wt).

Take B8: the % (/wt) luciferase activity is 5 % (/wt).

As to B9, the % (/wt) luciferase activity is 6.4 % (/wt).

Consider B10, for which the % (/wt) luciferase activity is 47 % (/wt).

Regarding B11, the % (/wt) luciferase activity is 79 % (/wt).
